Assay results published in publication PMC6325625, “The traffic ATPase PilF interacts with the inner membrane platform of the DNA translocator and type IV pili from Thermus thermophilus” (FEBS Open Bio, 2018).
One block for each molecule: values may come before it.

What was measured:
[1] = biological target: His6-PilM(K26A)-PilN-Strep complex (Thermus thermophilus HB27) (UniProt Q8VRL8)
[2] = biological target: His6-PilM-PilN-Strep complex (Thermus thermophilus HB27) (UniProt Q8VRL8)
[3] = biological target: His6-PilF (traffic ATPase PilF, hexameric complex) (Thermus thermophilus); test: native gel or EMSA; clear-native PAGE (3-15%) of purified His6-PilF; data not shown
PilM [4] = biological target: T1, PilM (Thermus thermophilus, UniProt Q72IW8, K26A); test: UV photo cross-linking and autoradiography; luciferase ATP content; conditions: labelled compound [alpha-32P]-ATP; MN buffer pH 7.5, 5 mM MgCl2, 0.02% DDM, on ice; binding not detected
T1 construct: full length, N-terminal His6 tag kept; pET28a, E. coli BL21 (DE3), Ni-NTA from the soluble fraction of cells co-expressing pilN-Strep; about 44 kDa monomer

PilM [5] = biological target: PilM (Thermus thermophilus, UniProt Q72IW8); test: luciferase assay of co-purified ATP after TCA precipitation; also UV photo cross-linking with [alpha-32P]-ATP; assay type: binding; conditions: ATP retained from E. coli, none added
[6] = biological target: PilN-Strep (Thermus thermophilus HB27) (UniProt Q8VRL7); test: native gel or EMSA; 5-20% clear-native PAGE of purified His6-PilMN-Strep, His6-PilMNO-Strep and His6-PilM; bands of PilMN cut out and run on 14% SDS/PAGE

T1 sequence (Q72IW8 entry or part of it K26A): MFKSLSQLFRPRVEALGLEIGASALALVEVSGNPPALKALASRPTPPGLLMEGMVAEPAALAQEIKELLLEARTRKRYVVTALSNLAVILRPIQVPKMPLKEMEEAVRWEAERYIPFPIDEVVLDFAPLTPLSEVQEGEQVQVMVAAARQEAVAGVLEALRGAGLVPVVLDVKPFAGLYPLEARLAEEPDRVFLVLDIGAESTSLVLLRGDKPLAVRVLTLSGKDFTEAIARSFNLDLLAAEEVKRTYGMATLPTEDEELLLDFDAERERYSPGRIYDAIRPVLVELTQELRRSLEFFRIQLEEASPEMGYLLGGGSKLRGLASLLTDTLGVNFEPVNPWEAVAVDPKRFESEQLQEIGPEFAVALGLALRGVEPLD

ATPase activity of the PilF hexamer mixed with PilM (K26A)N complex in a ratio of 1 : 20 [1]: 2 fold | ATPase activity of PilF (malachite green assay, 68 °C, 66.7 pmol PilF hexamer) with increasing amounts of PilMN, up to a ratio of 1 : 20 (PilF complex : PilMN complex) [2]: 2 fold | stoichiometry N [3]: 6
Molecule: His6-PilF (traffic ATPase PilF, hexameric complex) (enzyme)

UV photo cross-linking and autoradiography; luciferase ATP content (PilM [4]): no ATP was found in the PilMK26A variant | ATP per PilM monomer (PilM [5]): 0.89 ± 0.35 ATP per PilM monomer
Molecule: Nc1ncnc2c1ncn2[C@@H]1O[C@H](COP(=O)(O)OP(=O)(O)OP(=O)(O)O)[C@@H](O)[C@H]1O [ATP]

stoichiometry N [6]: 1 PilM : PilN | stoichiometry PilM : PilN of the larger (~195 kDa) oligomer, copies of each chain (copies of each chain) [6]: 3
B1: His6-PilM (soluble PilM from cells expressing His6-pilMN-Strep) (natural protein)
chain: MFKSLSQLFRPRVEALGLEIGASALKLVEVSGNPPALKALASRPTPPGLLMEGMVAEPAALAQEIKELLLEARTRKRYVVTALSNLAVILRPIQVPKMPLKEMEEAVRWEAERYIPFPIDEVVLDFAPLTPLSEVQEGEQVQVMVAAARQEAVAGVLEALRGAGLVPVVLDVKPFAGLYPLEARLAEEPDRVFLVLDIGAESTSLVLLRGDKPLAVRVLTLSGKDFTEAIARSFNLDLLAAEEVKRTYGMATLPTEDEELLLDFDAERERYSPGRIYDAIRPVLVELTQELRRSLEFFRIQLEEASPEMGYLLGGGSKLRGLASLLTDTLGVNFEPVNPWEAVAVDPKRFESEQLQEIGPEFAVALGLALRGVEPLD
